The labels stand for the following.
B1: HDV Ribozyme (parent)
chain: GGCCGGCAUGGUCCCAGCCUCCUCGCUGGCGCCGGCUGGGCAACAUUCCGAGGGGACCGUCCCCUCGGUAAUGGCGAAUGGGACCCA

The series covers variants of B1. Put plainly: self-cleavage, relative activity (ratio to wild type); higher = more cleavage; co-transcriptional.
For GGCCGGCAUGGUCCCAGCCUCCUCGCUGGCGCCGGCUGGGCAACAUUCCGAGGGGACCGUCCCCUCGGUAAUGGCGAAUUGGACUCA, the self-cleavage turned out to be 0.227.
Regarding GGCCGGCAUGGUCCCAGCCUCCUCGCUGGCGCCGGCUGGGCAACAUUCCGAGGGGACCGUCCCCUCGGUAAUGGCGAAUCCGACCCA, the self-cleavage was determined as 0.186.
The result for GGCCGGCAUGGUCCCAGCCUCCUCGCUGGCGCCGGCUGGGCAACAUUCCGAGGGGACCGUCCCCUCGGUAAUGGCGAAUCUGACCCA reads 0.231; that for GGCCGGCAUGGUCCCAGCCUCCUCGCUGGCGCCGGCUGGGCAACAUUCCGAGGGGACCGUCCCCUCGGUAAUGGCGAAUGCGACCAA, 0.554; that for GGCCGGCAUGGUCCCAGCCUCCUCGCUGGCGCCGGCUGGGCAACAUUCCGAGGGGACCGUCCCCUCGGUAAUGGCGAAUGCGACCUA, 0.302.
As for GGCCGGCAUGGUCCCAGCCUCCUCGCUGGCGCCGGCUGGGCAACAUUCCGAGGGGACCGUCCCCUCGGUAAUGGCGAAUGAUACCCA, the self-cleavage was 0.225.
Take GGCCGGCAUGGUCCCAGCCUCCUCGCUGGCGCCGGCUGGGCAACAUUCCGAGGGGACCGUCCCCUCGGUAAUGGCGAAUGACACCCA: the self-cleavage came out at 0.163.
Take GGCCGGCAUGGUCCCAGCCUCCUCGCUGGCGCCGGCUGGGCAACAUUCCGAGGGGACCGUCCCCUCGGUAAUGGCGAAUGAAACCCA: the self-cleavage was found to be 0.201.
On to GGCCGGCAUGGUCCCAGCCUCCUCGCUGGCGCCGGCUGGGCAACAUUCCGAGGGGACCGUCCCCUCGGUAAUGGCGAAUGCGACGCA, for which the self-cleavage stood at 0.128.
As to GGCCGGCAUGGUCCCAGCCUCCUCGCUGGCGCCGGCUGGGCAACAUUCCGAGGGGACCGUCCCCUCGGUAAUGGCGAAUGCGACACA, the self-cleavage stood at 0.213.
Consider GGCCGGCAUGGUCCCAGCCUCCUCGCUGGCGCCGGCUGGGCAACAUUCCGAGGGGACCGUCCCCUCGGUAAUGGCGAAUUGGACCAA, for which the self-cleavage stood at 0.239.
GGCCGGCAUGGUCCCAGCCUCCUCGCUGGCGCCGGCUGGGCAACAUUCCGAGGGGACCGUCCCCUCGGUAAUGGCGAAUUGGACCUA: the self-cleavage worked out at 0.281.
Turning to GGCCGGCAUGGUCCCAGCCUCCUCGCUGGCGCCGGCUGGGCAACAUUCCGAGGGGACCGUCCCCUCGGUAAUGGCGAAUGCUACCCA, the self-cleavage was found to be 0.287.
In the case of GGCCGGCAUGGUCCCAGCCUCCUCGCUGGCGCCGGCUGGGCAACAUUCCGAGGGGACCGUCCCCUCGGUAAUGGCGAAUUGGUCCCA it was 0.181.
Consider GGCCGGCAUGGUCCCAGCCUCCUCGCUGGCGCCGGCUGGGCAACAUUCCGAGGGGACCGUCCCCUCGGUAAUGGCGAAUCGAACCCA, for which the self-cleavage was 0.0824.
In the case of GGCCGGCAUGGUCCCAGCCUCCUCGCUGGCGCCGGCUGGGCAACAUUCCGAGGGGACCGUCCCCUCGGUAAUGGCGAAUCGCACCCA it was 0.166; in that of GGCCGGCAUGGUCCCAGCCUCCUCGCUGGCGCCGGCUGGGCAACAUUCCGAGGGGACCGUCCCCUCGGUAAUGGCGAAUCGUACCCA, 0.0782; in that of GGCCGGCAUGGUCCCAGCCUCCUCGCUGGCGCCGGCUGGGCAACAUUCCGAGGGGACCGUCCCCUCGGUAAUGGCGAAUGCGAUCCA, 0.141.
In the case of GGCCGGCAUGGUCCCAGCCUCCUCGCUGGCGCCGGCUGGGCAACAUUCCGAGGGGACCGUCCCCUCGGUAAUGGCGAAUGCGAGCCA, the self-cleavage was found to be 0.256.
For GGCCGGCAUGGUCCCAGCCUCCUCGCUGGCGCCGGCUGGGCAACAUUCCGAGGGGACCGUCCCCUCGGUAAUGGCGAAUUGAACCCA, the self-cleavage was 0.0297.
GGCCGGCAUGGUCCCAGCCUCCUCGCUGGCGCCGGCUGGGCAACAUUCCGAGGGGACCGUCCCCUCGGUAAUGGCGAAUUGUACCCA: the self-cleavage came to 0.147.
Take GGCCGGCAUGGUCCCAGCCUCCUCGCUGGCGCCGGCUGGGCAACAUUCCGAGGGGACCGUCCCCUCGGUAAUGGCGAAUUCGACCCA: the self-cleavage is 0.199.
Regarding GGCCGGCAUGGUCCCAGCCUCCUCGCUGGCGCCGGCUGGGCAACAUUCCGAGGGGACCGUCCCCUCGGUAAUGGCGAAUGCGACCCC, the self-cleavage stood at 0.269.
As for GGCCGGCAUGGUCCCAGCCUCCUCGCUGGCGCCGGCUGGGCAACAUUCCGAGGGGACCGUCCCCUCGGUAAUGGCGAAUGCGACCCG, the self-cleavage came out at 0.306.
GGCCGGCAUGGUCCCAGCCUCCUCGCUGGCGCCGGCUGGGCAACAUUCCGAGGGGACCGUCCCCUCGGUAAUGGCGAAUGCGACCCU: the self-cleavage came out at 0.265.
As for GGCCGGCAUGGUCCCAGCCUCCUCGCUGGCGCCGGCUGGGCAACAUUCCGAGGGGACCGUCCCCUCGGUAAUGGCGAAUUGGACCCA, the self-cleavage amounted to 0.223.
As to GGCCGGCAUGGUCCCAGCCUCCUCGCUGGCGCCGGCUGGGCAACAUUCCGAGGGGACCGUCCCCUCGGUAAUGGCGAAUGAGACCCC, the self-cleavage is 0.455.
GGCCGGCAUGGUCCCAGCCUCCUCGCUGGCGCCGGCUGGGCAACAUUCCGAGGGGACCGUCCCCUCGGUAAUGGCGAAUGAGGCCCA: the self-cleavage was 0.236.
Consider GGCCGGCAUGGUCCCAGCCUCCUCGCUGGCGCCGGCUGGGCAACAUUCCGAGGGGACCGUCCCCUCGGUAAUGGCGAAUGAGACGCA, for which the self-cleavage amounted to 0.175.
As to GGCCGGCAUGGUCCCAGCCUCCUCGCUGGCGCCGGCUGGGCAACAUUCCGAGGGGACCGUCCCCUCGGUAAUGGCGAAUGAGACCGA, the self-cleavage was determined as 0.45.
Turning to GGCCGGCAUGGUCCCAGCCUCCUCGCUGGCGCCGGCUGGGCAACAUUCCGAGGGGACCGUCCCCUCGGUAAUGGCGAAUGAGACCUA, the self-cleavage is 0.546.
In the case of GGCCGGCAUGGUCCCAGCCUCCUCGCUGGCGCCGGCUGGGCAACAUUCCGAGGGGACCGUCCCCUCGGUAAUGGCGAAUGAGAACCA it was 0.339.

Source of the values: the RNAGym collection of RNA variant scans (doi:10.7554/elife.80360).
